Measurements published in the PETadex activity labels (doi:10.1016/j.bbalip.2005.11.003).

B1: unnamed (protein)
chain: MTEPTVARPDIDPVLKMLLDTFPVTFTAADGVEVARARLRQLKTPPELLPELRIEERTVGYDGLTDIPVRVYWPPVVRDNLPVVVYYHGGGWSLGGLDTHDPVARAHAVGAQAIVVSVDYRLAPEHPYPAGIDDSWAALRWVGENAAELGGDPSRIAVAGDSAGGNISAVMAQLARDVGGPPLVFQLLWYPTTMADLSLPSFTENADAPILDRDVIDAFLAWYVPGLDISDHTMLPTTLAPGNADLSGLPPAFIGTAEHDPLRDDGACYAELLTAAGVSVELSNEPTMVHGYVNFALVVPAAAEATGRGLAALKRALHA
B2: unnamed (protein)
chain: MAKKDEHLRKPEWLKIKLNTNENYTGLKKLMRENNLHTVCEEAKCPNIHECWAVRRTATFMILGSVCTRACRFCAVKTGLPTELDLQEPERVADSVALMNLKHAVITAVARDDQKDGGAGIFAETVRAIRRKSPFTTIEVLPSDMGGNYDNLKTLMDTRPDILNHNIETVRRLTPRVRARATYDRSLEFLRRAKEMQPDIPTKSSIMIGLGETKEEIIEVMDDLLANNVDIMAIGQYLQPTKKHLKVQKYYHPDEFAELKEIAMQKGFSHCEAGPLVRSSYHADEQVNEASKKRQAQA
B3: unnamed (protein)
chain: MEPGSKSVSRSDWQPEPHQRPITPLEPGPEKTPIAQPESKTLQGSNTQQKPASNQRPLTQQETPAQHDAESQKEPRAQQKSASQEEFLAPQKPAPQQSPYIQRVLLTQQEAASQQGPGLGKESITQQEPALRQRHVAQPGPGPGEPPPAQQEAESTPAAQAKPGAKREPSAPTESTSQETPEQSDKQTTPVQGAKSKQGSLTELGFLTKLQELSIQRSALEWKALSEWVTDSESESDVGSSSDTDSPATMGGMVAQGVKLGFKGKSGYKVMSGYSGTSPHEKTSARNHRHYQDTASRLIHNMDLRTMTQSLVTLAEDNIAFFSSQGPGETAQRLSGVFAGVREQALGLEPALGRLLGVAHLFDLDPETPANGYRSLVHTARCCLAHLLHKSRYVASNRRSIFFRTSHNLAELEAYLAALTQLRALVYYAQRLLVTNRPGVLFFEGDEGLTADFLREYVTLHKGCFYGRCLGFQFTPAIRPFLQTISIGLVSFGEHYKRNETGLSVAASSLFTSGRFAIDPELRGAEFERITQNLDVHFWKAFWNITEMEVLSSLANMASATVRVSRLLSLPPEAFEMPLTADPTLTVTISPPLAHTGPGPVLVRLISYDLREGQDSEELSSLIKSNGQRSLELWPRPQQAPRSRSLIVHFHGGGFVAQTSRSHEPYLKSWAQELGAPIISIDYSLAPEAPFPRALEECFFAYCWAIKHCALLGSTGERICLAGDSAGGNLCFTVALRAAAYGVRVPDGIMAAYPATMLQPAASPSRLLSLMDPLLPLSVLSKCVSAYAGAKTEDHSNSDQKALGMMGLVRRDTALLLRDFRLGASSWLNSFLELSGRKSQKMSEPIAEPMRRSVSEAALAQPQGPLGTDSLKNLTLRDLSLRGNSETSSDTPEMSLSAETLSPSTPSDVNFLLPPEDAGEEAEAKNELSPMDRGLGVRAAFPEGFHPRRSSQGATQMPLYSSPIVKNPFMSPLLAPDSMLKSLPPVHIVACALDPMLDDSVMLARRLRNLGQPVTLRVVEDLPHGFLTLAALCRETRQAAELCVERIRLVLTPPAGAGPSGETGAAGVDGGCGGRH
B4: unnamed (protein)
chain: MRSSLVLFFVSAWTALASPIRREVSQDLFNQFNLFAQYSAAAYCGKNNDAPAGTNITCTGNACPEVEKADATFLYSFEDSGVGDVTGFLALDNTNKLIVLSFRGSRSIENWIGNLNFDLKEINDICSGCRGHDGFTSSWRSVADTLRQKVEDAVREHPDYRVVFTGHSLGGALATVAGADLRGNGYDIDVFSYGAPRVGNRAFAEFLTVQTGGTLYRITHTNDIVPRLPPREFGYSHSSPEYWIKSGTLVPVTRNDIVKIEGIDATGGNNQPNIPDIPAHLWYFGLIGTCL
B5: unnamed (protein)
chain: AEVCYSHLGCFSDEKPWAGTSQRPIKSLPSDPKKINTRFLLYTNENQNSYQLITATDIATIKASNFNLNRKTRFIIHGFTDSGENSWLSDMCKNMFQVEKVNCICVDWKGGSKAQYSQASQNIRVVGAEVAYLVQVLSTSLNYAPENVHIIGHSLGAHTAGEAGKRLNGLVGRITGLDPAEPYFQDTPEEVRLDPSDAKFVDVIHTDISPILPSLGFGMSQKVGHMDFFPNGGKDMPGCKTGISCNHHRSIEYYHSSILNPEGFLGYPCASYDEFQESGCFPCPAKGCPKMGHFADQYPGKTNAVEQTFFLNTGASDNFTRWRYKVTVTLSGEKDPSGNINVALLGKNGNSAQYQVFKGTLKPDASYTNSIDVELNVGTIQKVTFLWKRSGISVSKPKMGASRITVQSGKDGTKYNFCSSDIVQENVEQTLSPC
B6: unnamed (protein)
chain: MVLKQRANYLGFLIVFFTAFLVEAVPIKRQSNSTVDSLPPLIPSRTSAPSSSPSTTDPEAPAMSRNGPLPSDVETKYGMALNATSYPDSVVQAMSIDGGIRAATSQEINELTYYTTLSANSYCRTVIPGATWDCIHCDATEDLKIIKTWSTLIYDTNAMVARGDSEKTIYIVFRGSSSIRNWIADLTFVPVSYPPVSGTKVHKGFLDSYGEVQNELVATVLDQFKQYPSYKVAVTGHSLGGATALLCALDLYQREEGLSSSNLFLYTQGQPRVGDPAFANYVVSTGIPYRRTVNERDIVPHLPPAAFGFLHAGEEYWITDNSPETVQVCTSDLETSDCSNSIVPFTSVLDHLSYFGINTGLCT

Substrate: p-NP-C4
Conditions: pH 7; 25 °C

Row | Protein | Km [mM] | kcat [s⁻¹] | kcat/Km [s⁻¹ M⁻¹]
1 | B1 | 0.05 | 185 | 3.7e+06
2 | B2 | 0.75 | 50 | 66700
3 | B3 | 1 | 190 | 190000
4 | B4 | 2.5 | 580 | 232000
5 | B5 | 1 | 50 | 50000
6 | B6 | 2.1 | 420 | 200000

Substrate: triacetin
Conditions: pH 7; 25 °C

Row | Protein | Km [M] | kcat [s⁻¹] | kcat/Km [s⁻¹ M⁻¹]
7 | B2 | 0.11 | 120 | 1090
8 | B5 | 0.12 | 555 | 4630
9 | B6 | 0.21 | 10 | 47.6

Substrate: tributyrin
Conditions: pH 7; 25 °C

Row | Protein | Km [µM] | kcat [s⁻¹] | kcat/Km [s⁻¹ M⁻¹]
10 | B2 | 400 | 100 | 250000
11 | B3 | 400 | 18 | 45000
12 | B4 | 500 | 2250 | 4.5e+06
13 | B5 | 450 | 1500 | 3.33e+06
14 | B6 | 450 | 1080 | 2.4e+06

Substrate: tripropionin
Conditions: pH 7; 25 °C

Row | Protein | Km [M] | kcat [s⁻¹] | kcat/Km [s⁻¹ M⁻¹]
15 | B2 | 0.012 | 150 | 12500
16 | B3 | 0.015 | 7 | 467
17 | B4 | 0.014 | 225 | 16100
18 | B5 | 0.0105 | 750 | 71400
19 | B6 | 0.018 | 200 | 11100

Substrate: vinyl acetate
Conditions: pH 7; 25 °C

Row | Protein | Km [M] | kcat [s⁻¹] | kcat/Km [s⁻¹ M⁻¹]
20 | B2 | 0.28 | 100 | 357
21 | B3 | 0.17 | 140 | 824
22 | B4 | 0.28 | 455 | 1630
23 | B5 | 0.295 | 70 | 237
24 | B6 | 0.12 | 950 | 7920

Substrate: vinyl butyrate
Conditions: pH 7; 25 °C

Row | Protein | Km [M] | kcat [s⁻¹] | kcat/Km [s⁻¹ M⁻¹]
25 | B2 | 0.04 | 635 | 15900
26 | B3 | 0.011 | 210 | 19100
27 | B4 | 0.02 | 2600 | 130000
28 | B5 | 0.02 | 200 | 10000
29 | B6 | 0.015 | 5390 | 359000

Substrate: vinyl laurate
Conditions: pH 7; 25 °C

Row | Protein | Km [mM] | kcat [s⁻¹] | kcat/Km [s⁻¹ M⁻¹]
30 | B2 | 5 | 145 | 29000
31 | B3 | 3 | 31 | 10300
32 | B4 | 4 | 12000 | 3e+06
33 | B5 | 1.25 | 125 | 100000
34 | B6 | 2 | 5400 | 2.7e+06

Substrate: vinyl propionate
Conditions: pH 7; 25 °C

Row | Protein | Km [M] | kcat [s⁻¹] | kcat/Km [s⁻¹ M⁻¹]
35 | B2 | 0.075 | 1940 | 25800
36 | B3 | 0.07 | 105 | 1500
37 | B4 | 0.1 | 1950 | 19500
38 | B5 | 0.05 | 270 | 5400
39 | B6 | 0.035 | 3680 | 105000
